Experiment [1] has as its target T1, human HER4 expressed on HEK293 cells (human, UniProt Q15303 26-1308).
T1 construct: whole, on cells; also called HEK293 HER4 overexpressing cells; cell-surface expressed HER4
In words: flow cytometry on HEK293 HER4 overexpressing cells. As for the experimental part: Also included was a commercial anti-HER4 antibody (Novus, Cat: FAB11311P). Unstained HEK293 cells were included in the analysis as negative controls.
HEK293 cells were incubated with 10 μg/ml of each antibody for 1 hour at 4° C. Flow cytometry was performed as described above. Cells were contacted with FITC-conjugated anti-FC antibody (Invitrogen, USA) at for 30 min at 4° C.
For orientation: A flow cytometer gives signals particle by particle.

The target of the next experiment is T2, human EGFR (human, UniProt P00533 25-645).
T2 construct: also called human HER1 (EGFR) (Sino Biological Inc.)
The experiment in a line: ELISA; plate coated with target polypeptide, absorbance 450 nm. As for the experimental part: (§1) The antibodies were analysed for their ability to bind to human HER3 polypeptide as well as human HER1 (EGFR) and human HER2 (Sino Biological Inc., China).
(§2) ELISAs were carried out according to standard protocols. Plates were coated with 0.1 μg/ml of target polypeptide in phosphate-buffered saline (PBS) for 16 h at 4° C. After blocking for 1 h with 1% BSA in Tris buffer saline (TBS) at room temperature, the anti-HER3 antibody was serially diluted with the highest concentration being 10 μg/ml, and added to the plate. Post 1 h incubation at room temperature, plates were washed three times with TBS containing 0.05% Tween 20 (TBS-T) and were then incubated with a HRP-conjugated anti-His antibody (Life Technologies, Inc., USA) for 1 h at room temperature. After washing, plates were developed with colorimetric detection substrate 3,3′,5,5′-tetramethylbenzidine (Turbo-TMB; Pierce, USA) for 10 min. The reaction was stopped with 2M H₂SO₄, and OD was measured at 450 nm.
A general note: In an ELISA, binding on a coated surface is turned into a signal by an enzyme label.

For a further experiment, the target named is T3, human HER2 (human, UniProt P04626 23-652).
T3 construct: also called human HER2 (Sino Biological Inc.)
The experiment is described as above. On the procedure: as §1, §2

A further experiment concerns the target T4, human HER3 polypeptide (human, UniProt P21860 20-643).
T4 construct: Recombinant antigen of the ELISAs; also called human HER3 (Sino Biological Inc.); human antigen HER3
In words: ELISA; plate coated with target polypeptide, antibody serially diluted, absorbance 450 nm. On the procedure: as §2

The target of another experiment is T5, mouse HER3 (mouse, UniProt Q61526 20-641).
T5 construct: also called mouse homologue of HER3 (Sino Biological Inc.); M. musculus HER3
Described as above. As for the experimental part:
as §2

Another experiment deals with T6, rat HER3 (rat, UniProt Q62799 20-641, limits assumed).
T6 construct: also called rat homologue of HER3 (Sino Biological Inc.); R. norvegicus HER3
The description is as above. As for the experimental part:
as §2

The target of another experiment is T7, cynomolgus macaque HER3 (cynomolgus macaque, UniProt G7PIG5 20-643).
T7 construct: also called monkey homologue of HER3 (Sino Biological Inc.); HER3 cyno
Described as above. As for the experimental part: as §2

T6 sequence (Q62799 20-641 limits assumed): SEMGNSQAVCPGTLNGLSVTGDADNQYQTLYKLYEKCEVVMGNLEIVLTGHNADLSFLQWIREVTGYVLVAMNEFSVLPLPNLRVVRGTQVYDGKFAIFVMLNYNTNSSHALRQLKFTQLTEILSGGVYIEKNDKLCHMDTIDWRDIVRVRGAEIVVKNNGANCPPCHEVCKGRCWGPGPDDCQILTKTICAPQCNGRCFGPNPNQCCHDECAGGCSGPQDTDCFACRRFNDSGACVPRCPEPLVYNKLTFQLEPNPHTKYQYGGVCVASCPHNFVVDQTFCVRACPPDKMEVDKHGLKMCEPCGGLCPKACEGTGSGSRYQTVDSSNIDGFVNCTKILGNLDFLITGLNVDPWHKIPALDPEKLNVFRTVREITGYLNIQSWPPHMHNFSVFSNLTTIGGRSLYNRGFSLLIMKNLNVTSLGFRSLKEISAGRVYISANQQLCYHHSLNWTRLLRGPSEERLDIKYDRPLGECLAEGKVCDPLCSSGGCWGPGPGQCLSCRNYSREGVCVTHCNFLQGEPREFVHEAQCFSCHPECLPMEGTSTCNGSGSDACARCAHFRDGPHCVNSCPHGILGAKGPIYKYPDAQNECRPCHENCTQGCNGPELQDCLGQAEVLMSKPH
T5 sequence (Q61526 20-641 limits assumed): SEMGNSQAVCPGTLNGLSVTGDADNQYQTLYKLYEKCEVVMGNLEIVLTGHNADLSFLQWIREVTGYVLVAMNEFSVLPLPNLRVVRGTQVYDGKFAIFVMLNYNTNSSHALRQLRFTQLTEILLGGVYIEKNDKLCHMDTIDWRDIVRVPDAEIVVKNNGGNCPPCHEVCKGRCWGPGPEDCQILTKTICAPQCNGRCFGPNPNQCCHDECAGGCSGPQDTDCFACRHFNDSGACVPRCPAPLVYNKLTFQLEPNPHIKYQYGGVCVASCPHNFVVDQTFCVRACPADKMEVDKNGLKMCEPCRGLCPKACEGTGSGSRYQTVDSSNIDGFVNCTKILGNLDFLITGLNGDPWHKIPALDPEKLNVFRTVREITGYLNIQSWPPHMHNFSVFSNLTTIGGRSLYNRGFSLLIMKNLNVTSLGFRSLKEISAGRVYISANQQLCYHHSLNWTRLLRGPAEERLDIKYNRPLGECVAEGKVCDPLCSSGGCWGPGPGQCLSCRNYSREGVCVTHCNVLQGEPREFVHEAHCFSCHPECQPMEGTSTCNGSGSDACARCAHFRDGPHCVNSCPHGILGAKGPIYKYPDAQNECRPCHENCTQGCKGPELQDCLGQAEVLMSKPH
T7 sequence (G7PIG5 entry or part of it): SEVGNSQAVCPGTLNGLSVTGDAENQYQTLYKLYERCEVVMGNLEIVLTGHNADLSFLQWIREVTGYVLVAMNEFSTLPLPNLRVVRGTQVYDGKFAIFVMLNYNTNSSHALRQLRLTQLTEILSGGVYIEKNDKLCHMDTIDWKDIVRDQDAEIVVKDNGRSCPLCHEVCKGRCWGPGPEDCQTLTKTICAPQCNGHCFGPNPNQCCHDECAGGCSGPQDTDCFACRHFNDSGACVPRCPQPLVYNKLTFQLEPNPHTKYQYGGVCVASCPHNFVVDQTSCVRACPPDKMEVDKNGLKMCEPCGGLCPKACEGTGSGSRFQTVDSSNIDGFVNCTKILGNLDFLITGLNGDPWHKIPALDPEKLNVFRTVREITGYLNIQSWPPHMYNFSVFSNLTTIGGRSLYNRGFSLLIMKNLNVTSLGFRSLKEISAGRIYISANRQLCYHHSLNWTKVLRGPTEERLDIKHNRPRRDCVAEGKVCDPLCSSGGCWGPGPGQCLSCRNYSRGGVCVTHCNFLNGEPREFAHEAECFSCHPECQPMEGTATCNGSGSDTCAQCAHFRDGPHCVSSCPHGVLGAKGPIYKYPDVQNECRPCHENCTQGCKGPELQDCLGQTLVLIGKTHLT
T1 sequence (Q15303 26-1308): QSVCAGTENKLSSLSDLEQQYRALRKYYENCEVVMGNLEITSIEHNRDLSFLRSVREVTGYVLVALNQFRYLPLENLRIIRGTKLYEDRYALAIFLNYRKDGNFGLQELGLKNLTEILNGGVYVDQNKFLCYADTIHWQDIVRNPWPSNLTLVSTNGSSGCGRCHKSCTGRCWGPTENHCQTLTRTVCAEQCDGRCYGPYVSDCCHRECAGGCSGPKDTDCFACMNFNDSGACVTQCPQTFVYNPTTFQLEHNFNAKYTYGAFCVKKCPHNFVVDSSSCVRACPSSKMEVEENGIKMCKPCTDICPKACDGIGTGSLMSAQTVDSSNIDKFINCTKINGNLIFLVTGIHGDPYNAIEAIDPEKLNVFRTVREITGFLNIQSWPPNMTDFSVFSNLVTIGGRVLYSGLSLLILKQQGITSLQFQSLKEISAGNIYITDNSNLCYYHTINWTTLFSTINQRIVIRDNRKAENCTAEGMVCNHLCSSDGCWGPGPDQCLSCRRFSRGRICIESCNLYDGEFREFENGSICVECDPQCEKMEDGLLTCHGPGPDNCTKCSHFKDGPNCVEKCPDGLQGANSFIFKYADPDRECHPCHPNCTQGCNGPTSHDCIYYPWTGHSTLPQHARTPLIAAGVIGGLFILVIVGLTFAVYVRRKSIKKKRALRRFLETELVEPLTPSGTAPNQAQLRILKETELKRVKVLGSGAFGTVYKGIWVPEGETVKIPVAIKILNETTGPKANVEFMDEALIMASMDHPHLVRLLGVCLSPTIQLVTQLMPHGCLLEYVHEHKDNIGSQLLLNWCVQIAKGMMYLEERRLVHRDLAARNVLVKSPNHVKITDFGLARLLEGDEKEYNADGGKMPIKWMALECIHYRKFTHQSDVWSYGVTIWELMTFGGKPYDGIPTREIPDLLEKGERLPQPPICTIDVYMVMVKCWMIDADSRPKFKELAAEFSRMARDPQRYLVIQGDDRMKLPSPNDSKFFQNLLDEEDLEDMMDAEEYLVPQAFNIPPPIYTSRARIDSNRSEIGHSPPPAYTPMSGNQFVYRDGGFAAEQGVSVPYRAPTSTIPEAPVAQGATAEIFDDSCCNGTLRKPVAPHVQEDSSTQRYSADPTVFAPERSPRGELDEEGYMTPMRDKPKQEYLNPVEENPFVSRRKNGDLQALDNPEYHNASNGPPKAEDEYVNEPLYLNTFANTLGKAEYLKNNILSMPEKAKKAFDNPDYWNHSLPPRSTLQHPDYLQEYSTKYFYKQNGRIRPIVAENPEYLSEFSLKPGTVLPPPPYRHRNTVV

B1: 10D1F.FcA (anti-HER3 clone 10D1_c89 IgG1) (antibody)
heavy: not shown
light: DIQMTQSPSSVSASVGDRVTITCKASQIVGSNVAWYQQKPGKAPEPLIYSASYLYSGVPSRFSGSGSGTDFTLTISSLQPEDFATYYCQQYSSHPLTFGQGTKLEIKRTVAAPSVFIFPPSDEQLKSGTASVVCLLNNFYPREAKVQWKVDNALQSGNSQESVTEQDSKDSTYSLSSTLTLSKADYEKHKVYACEVTHQGLSSPVTKSFNRGEC
notes: also called 10D1F.A; HMBD-001
By EC50 is commonly meant the concentration needed to bring the measured effect to its halfway point. Read a high EC50 as weaker potency. On to B1, for which the binding result (in experiment [1]; with human EGFR; with human HER2) was “no binding” in each case. Besides, the half-maximal effective concentration (EC50) came out at 0.0144 nM with human HER3 polypeptide, 0.0332 nM with mouse HER3, 0.0303 nM with rat HER3 and 0.0258 nM in the experiment with cynomolgus macaque HER3.

For the origin of these results see patent publication US20250122303A1 (HUMMINGBIRD BIOSCIENCE PTE, published 2025).
